Literature values as cited in PMC11339341.
Read-outs that look alike come from different tables or passages of the source.

Columns and labels:
IL-4Rα (Homo sapiens) = IL-4Rα (Homo sapiens) (UniProt P24394)
IL-2Rβ:γc (Homo sapiens) = IL-2Rβ:γc (Homo sapiens) (UniProt P14784)
IL-2Rβ (Homo sapiens) [1] = target: IL-2Rβ (Homo sapiens) (UniProt P14784)
IFNAR2 (Homo sapiens) [2] = target: IFNAR2 (Homo sapiens) (UniProt P48551)
IL-2Rβ (Homo sapiens) [3] = target: IL-2Rβ (Homo sapiens) (UniProt P14784); remark: listed apart in the source
IFNAR2 (Homo sapiens) [4] = target: IFNAR2 (Homo sapiens) (UniProt P48551); remark: listed apart in the source
IFNAR1 (Homo sapiens) = IFNAR1 (Homo sapiens) (UniProt P17181)
IL-2Rβ (Homo sapiens) [5] = target: IL-2Rβ (Homo sapiens) (UniProt P14784); remark: listed apart in the source
IL-2Rβ (Homo sapiens) [6] = target: IL-2Rβ (Homo sapiens) (UniProt P14784); remark: listed apart in the source

UniProt P48551, sequence (P48551 27-243): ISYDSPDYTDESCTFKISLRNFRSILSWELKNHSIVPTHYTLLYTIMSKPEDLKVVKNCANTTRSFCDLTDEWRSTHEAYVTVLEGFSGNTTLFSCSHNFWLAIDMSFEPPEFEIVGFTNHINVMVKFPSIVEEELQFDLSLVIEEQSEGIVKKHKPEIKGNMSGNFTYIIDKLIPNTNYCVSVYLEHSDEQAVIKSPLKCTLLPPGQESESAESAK
UniProt P17181, sequence (P17181 28-436): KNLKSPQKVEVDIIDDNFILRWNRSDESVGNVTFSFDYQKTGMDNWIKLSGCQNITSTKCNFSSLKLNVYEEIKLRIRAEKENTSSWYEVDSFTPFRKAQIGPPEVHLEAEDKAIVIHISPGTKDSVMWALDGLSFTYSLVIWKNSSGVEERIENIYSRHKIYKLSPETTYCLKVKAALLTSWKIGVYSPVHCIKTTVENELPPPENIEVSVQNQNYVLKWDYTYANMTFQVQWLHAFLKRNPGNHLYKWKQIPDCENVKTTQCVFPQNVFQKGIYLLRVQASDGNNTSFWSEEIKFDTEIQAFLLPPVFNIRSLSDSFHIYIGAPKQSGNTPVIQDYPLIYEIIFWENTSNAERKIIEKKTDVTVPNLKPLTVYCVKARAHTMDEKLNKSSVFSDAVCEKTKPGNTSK

In the case of IL-4 (from UniProt P05112), the Kd (IL-4Rα (Homo sapiens)) is listed as under 1 nM.

For IL-2 (from UniProt P60568), the Kd (IL-2Rβ:γc (Homo sapiens)) is listed as 1 nM and the Kd (IL-2Rβ (Homo sapiens) [1]) is listed as 100 nM.

In the case of IFNα1 (from UniProt P0DY56), the Kd (IFNAR2 (Homo sapiens) [2]) is listed as 200 nM.

For “IL-15:IL-15Rα complex (from UniProt P40933)”, the Kd (IL-2Rβ (Homo sapiens) [3]) is given as 3 nM.

In the case of IFNβ (from UniProt P01574), the Kd (IFNAR2 (Homo sapiens) [4]) is listed as 0.2 nM and the Kd (IFNAR1 (Homo sapiens)) is listed as 50 nM.

For IL-15 (from UniProt P40933), the Kd (IL-2Rβ (Homo sapiens) [5]) is given as 438 nM.

For “IL-2:IL-2Rα complex (from UniProt P60568)”, the Kd (IL-2Rβ (Homo sapiens) [6]) is listed as 0.03 nM.
